Reference: patent publication US20230210962A1, “CONDITIONING REGIMEN FOR TRANSPLANT” (Hansa Biopharma AB, priority 2020, published 2023)

Key:
[1] = target: Rabbit anti-thymocyte globulin (rATG) (rabbit); assay: cell-based or functional assay; conditions: scale: of 11 subjects with intact rATG remaining
[2] = tested on: anti-MHC-I H-2K^b mAb (mouse IgG2b) mediated killing of donor BMC; assay: In vivo EndoS mediated monoclonal DSA inhibition assay (NOD recipients); design: species or system NOD mice
Protocol: (§1) FIG. 1. EndoS inhibits monoclonal DSA mediated killing of donor bone marrow cells. Naive NOD (panel A-B) or B6.H-2^g7 (panel C-D) were given 30 µg EndoS and/or anti-H-2K^b mAb (10 µg or 100 µg) intravenously four hours prior to the infusion of a mixture of CFSE labeled NOD/CTV labeled B6 bone marrow cells (BMC; panel A-B) or CFSE labeled B6.H-2^g7/CTV labeled NOD.H-2^b BMC (panel C-D). Shown are experiment protocols for NOD (panel A) and B6.H-2^g7 (panel C). Shown are the ratios of dye labeled B6 to NOD cells (panel B) or NOD.H-2^b to B6.H-2^g7 cells (panel D) in the blood (left panels) collected one to three hours after bone marrow transplant (BMT), in host spleens (middle panels) and bone marrow (BM, right panels) collected at four hours after BMT. Mean±SEM are shown. Data were pooled from five (panel B) and four (panel D) independent experiments. Mann-Whitney U test (middle and right panels) was used for the comparisons shown; *p<0.05 and **p<0.01.
NOD or B6.H-2^g7 mice were i.v. injected with vehicle, anti-MHC-I H-2K^b (10 µg) alone, or a mixture of EndoS (30 µg) and anti-MHC-I H-2K^b (10 µg or 100 µg) as a pretreatment. EndoS and anti-H-2K^b were mixed right before injection. Four hours after this pretreatment, five million cells of a 1:1 mixture of carboxyfluorescein succinimidyl ester (CFSE) labeled NOD and cell trace violet dye (CTV) labeled B6 bone marrow cells (BMC) were i.v. injected into the pre-treated NOD mice. Similarly, a 1:1 mixture of CFSE labeled B6.H-2^g7 and CTV labeled NOD.H-2^b BMC were injected into pre-treated B6.H-2^g7 mice. Blood was collected at 1, 2, and 3 hours post cell administration and analyzed by flow cytometry. Splenocytes and BMC from one hind limb were collected from each mouse and analyzed at four hours post BMC injection.
To evaluate the effect of EndoS on inhibiting the antibody-mediated killing of donor BMC, DSA passive transfer experiments were performed. Of all DSA, anti-donor MHC or HLA antibodies are of most importance in the clinic. Therefore, naïve NOD mice were injected with mouse IgG2b antibodies targeting MHC-I K^b expressing cells, treated with EndoS or left untreated, and thereafter subjected to bone marrow transfer from B6 mice.

[3] = tested on: anti-MHC-I H-2K^b mAb (mouse IgG2b) mediated killing of donor BMC; assay: In vivo EndoS mediated monoclonal DSA inhibition assay (complement sufficient B6.H-2^g7 recipients); design: species or system B6.H-2^g7 mice; conditions: compared to NOD hosts
Protocol: as §1
NOD or B6.H-2^g7 mice were i.v. injected with vehicle, anti-MHC-I H-2K^b (10 µg) alone, or a mixture of EndoS (30 µg) and anti-MHC-I H-2K^b (10 µg or 100 µg) as a pretreatment. […] Blood was collected at 1, 2, and 3 hours post cell administration and analyzed by flow cytometry. Splenocytes and BMC from one hind limb were collected from each mouse and analyzed at four hours post BMC injection. […]

[4] = Imlifidase serum concentration in healthy subjects; format: in vivo, human; conditions: 0.25 mg/kg imlifidase, 96 hours
Protocol: (§2) FIG. 5. Mean imlifidase concentration vs. nominal time from dosing (N=15). Data BLQ are included in mean calculation as BLQ/2. SD indicated with bars. FIG. 6. In vitro cleavage of rATG by imlifidase over time. Columns indicate number of subjects with visible intact rATG on Western blot post-imlifidase (N=11).
(§3) The cleavage pattern of rATG was investigated with sera from healthy subjects (n=11) treated with 0.25 mg/kg imlifidase (EudraCT number: 2019-002770-31). Serum samples were incubated with a fixed, clinically relevant, concentration of 50 µg/mL rATG (commonly observed after a dose of 1.5 mg/kg), for 2 hours at 37° C. Serum samples were collected pre-imlifidase through 14 days post-imlifidase and were analyzed using SDS-PAGE and Western blot, developed with a goat anti-rabbit IgG, F(ab′)2 specific antibody to evaluate the cleavage of rATG. Imlifidase concentration was analyzed using a validated electroluminescence immunoassay based on MSD technology.

[5] = tested on: B6.CD45.2 donor bone marrow cells; assay: Short-term survival of donor BMC in sensitized recipients; format: in vivo, NOD mice; conditions: T cell-depleted NOD, enzyme 4 h prior to BMT, four hours post-BMT
Excerpt: FIG. 2. EndoS-imlifidase reduces DSA-mediated killing of donor BMC in sensitized recipients. (A-C) Naive NOD mice were immunized with FVB splenocytes four weeks prior to the administration of EndoS-imlifidase. Sera were harvested prior to immunization, prior to and four hours after enzyme treatment. Representative histograms on the left are for DSA-IgG Fc (panel A), DSA-IgG1 Fc (panel B), DSA-IgG3 Fc (panel C) and DSA-IgG3 heavy chain (panel D) with sera at a 1:25 dilution. Mean fluorescence intensity (MFI) of DSA in the titrated sera is shown on the right. Mean±SEM are shown. Ratio paired t test was used to compare MFI of DSA before and after enzyme treatment at each serum dilution with *p<0.05, **p<0.01. (D) Schematic of the experiment shown in E-F. Naive NOD mice were immunized with B6.CD45.1 splenocytes four weeks prior to injection of T cell depleting mAbs. […] Splenocytes and bone marrow cells were analysed for the expression of MHC-I H-2K^b and CD45.2. […]
To determine the short-term survival of donor BMC in sensitized recipients, NOD mice that had been sensitized to B6.CD45.1 splenocytes were T cell-depleted (anti-CD4, 0.25 mg, anti-CD8, 0.25 mg, anti-CD90 0.3 mg, i.p.) two days prior to BMT and i.v. injected with EndoS and imlifidase 4 hours prior to BMT (80×10^6 B6.CD45.2 BMC via i.v. injection). Splenocytes and BMC were analyzed at 4 hours post BMC injection.

[6] = tested on: rATG; assay: In vitro cleavage of rATG by imlifidase in post-dose sera (SDS-PAGE and Western blot); format: biochemical, rabbit; conditions: sera 96 hours post-imlifidase, 50 µg/mL rATG, 2 hours at 37° C
Protocol: as §2, §3

[7] = tested on: plasma IgG-pool; conditions: humans, cited from earlier work

Imlifidase (IdeS, Immunoglobulin G-degrading enzyme of S. pyogenes)
cleavage of rATG in sera of imlifidase-treated subjects (SDS-PAGE and Western blot), 96 hours post-imlifidase [1]: 8

B1: EndoS: Endoglycosidase of S. pyogenes, IgG endoglycosidase; mature sequence SEQ ID NO: 90 (protein)
chain: EEKTVQVQKGLPSIDSLHYLSENSKKEFKEELSKAGQESQKVKEILAKAQQADKQAQELAKMKIPEKIPMKPLHGPLYGGYFRTWHDKTSDPTEKDKVNSMGELPKEVDLAFIFHDWTKDYSLFWKELATKHVPKLNKQGTRVIRTIPWRFLAGGDNSGIAEDTSKYPNTPEGNKALAKAIVDEYVYKYNLDGLDVDVEHDSIPKVDKKEDTAGVERSIQVFEEIGKLIGPKGVDKSRLFIMDSTYMADKNPLIERGAPYINLLLVQVYGSQGEKGGWEPVSNRPEKTMEERWQGYSKYIRPEQYMIGFSFYEENAQEGNLWYDINSRKDEDKANGINTDITGTRAERYARWQPKTGGVKGGIFSYAIDRDGVAHQPKKYAKQKEFKDATDNIFHSDYSVSKALKTVMLKDKSYDLIDEKDFPDKALREAVMAQVGTRKGDLERFNGTLRLDNPAIQSLEGLNKFKKLAQLDLIGLSRITKLDRSVLPANMKPGKDTLETVLETYKKDNKEEPATIPPVSLKVSGLTGLKELDLSGFDRETLAGLDAATLTSLEKVDISGNKLDLAPGTENRQIFDTMLSTISNHVGSNEQTVKFDKQKPTGHYPDTYGKTSLRLPVANEKVDLQSQLLFGTVTNQGTLINSEADYKAYQNHKIAGRSFVDSNYHYNNFKVSYENYTVKVTDSTLGTTTDKTLATDKEETYKVDFFSPADKTKAVHTAKVIVGDEKTMMVNLAEGATVIGGSADPVNARKVFDGQLGSETDNISLGWDSKQSIIFKLKEDGLIKHWRFFNDSARNPETTNKPIQEASLQIFNIKDYNLDNLLENPNKFDDEKYWITVDTYSAQGERATAFSNTLNNITSKYWRVVFDTKGDRYSSPVVPELQILGYPLPNADTIMKTVTTAKELSQQKDKFSQKMLDELKIKEMALETSLNSKIFDVTAINANAGVLKDCIEKRQLLKK
modifications: Streptococcus pyogenes
ratio of B6 to NOD cells in blood ([2]; 30 µg EndoS i.v. with 10 µg anti-K^b mAb vs mAb alone, one hour post-BMT, stable at two and three hours): significantly increased | ratio of B6 to NOD cells in BM and spleen ([2]; EndoS with 10 µg anti-K^b mAb vs mAb only, four hours post-BMT): significant increase | ratio of B6 to NOD cells in blood ([2]; EndoS with 100 µg anti-K^b mAb vs mAb alone, one and two hours post-BMT): increased ratio | ratio of B6 to NOD cells in blood ([2]; EndoS with 100 µg anti-K^b mAb, three hours post-BMT): did not last | ratios of donor to recipient cells [3]: improved

B2: imlifidase: IdeS (Immunoglobulin G-degrading enzyme of S.pyogenes), IgG cysteine protease; mature sequence SEQ ID NO: 2 (protein)
chain: DSFSANQEIRYSEVTPYHVTSVWTKGVTPPANFTQGEDVFHAPYVANQGWYDITKTFNGKDDLLCGAATAGNMLHWWFDQNKDQIKRYLEEHPEKQKINFNGEQMFDVKEAIDTKNHQLDSKLFEYFKEKAFPYLSTKHLGVFPDHVIDMFINGYRLSLTNHGPTPVKEGSKDPRGGIFDAVFTRGDQSKLLTSRHDFKEKNLKEISDLIKKELTEGKALGLSHTYANVRINHVINLWGADFDSNGNLKAIYVTDSDSNASIGMKKYFVGVNSAGKVAISAKEIKEDNIGAQVLGLFTLSTGQDSWNQTN
modifications: Streptococcus pyogenes
imlifidase serum concentration, individual variation [4]: <0.1 to 1.8 µg/mL | imlifidase serum concentration, mean [4]: 0.5 µg/mL | B6.CD45.2 donor cells in BM [5]: 0.15% | B6.CD45.2 donor cells in spleen [5]: 0.46% | subjects in which complete cleavage of rATG was avoided [6]: 8 of 11 | cleavage of the entire plasma IgG-pool ([7]; after dosing with IdeS): within minutes | time IgG levels in blood remain low ([7]; until newly synthesized IgG appeared): more than a week
